Experimental data: patent US20040229288A1 (AJINOMOTO, published 2004)

Experiments:
[1] = molecular target: GPIb-mIgG2aFc chimeric protein (N-terminus side region of human glycoprotein Ib, amino acid numbers 1-319, fused to the Fc region of mouse immunoglobulin γ2a) (human (glycoprotein Ib part); mouse (immunoglobulin γ2a Fc part)); assay: Eu-labelled vWF on captured chimeric protein, ristocetin 0.5 mg/ml, competitor recombinant AS1051 at 20 µg/ml
[2] = molecular target: GPIb-mIgG2aFc chimeric protein (N-terminus side region of human glycoprotein Ib, amino acid numbers 1-319, fused to the Fc region of mouse immunoglobulin γ2a) (human (glycoprotein Ib part); mouse (immunoglobulin γ2a Fc part)); assay: Eu-labelled vWF with botrocetin on captured chimeric protein, in the presence of the competitor AJvW-2 (as the table names it)
[3] = molecular target: GPIb-mIgG2aFc chimeric protein (N-terminus side region of human glycoprotein Ib, amino acid numbers 1-319, fused to the Fc region of mouse immunoglobulin γ2a) (human (glycoprotein Ib part); mouse (immunoglobulin γ2a Fc part)); assay: Eu-labelled vWF (500 ng/ml) on captured chimeric protein, ristocetin 0.5 mg/ml, no inhibitor
[4] = molecular target: GPIb-mIgG2aFc chimeric protein (N-terminus side region of human glycoprotein Ib, amino acid numbers 1-319, fused to the Fc region of mouse immunoglobulin γ2a) (human (glycoprotein Ib part); mouse (immunoglobulin γ2a Fc part)); assay: Eu-labelled vWF on captured chimeric protein, ristocetin 0 mg/ml, competitor recombinant AS1051 at 20 µg/ml
[5] = molecular target: GPIb-mIgG2aFc chimeric protein (N-terminus side region of human glycoprotein Ib, amino acid numbers 1-319, fused to the Fc region of mouse immunoglobulin γ2a) (human (glycoprotein Ib part); mouse (immunoglobulin γ2a Fc part)); assay: Eu-labelled vWF (500 ng/ml) on captured chimeric protein, ristocetin 0.25 mg/ml, no inhibitor
[6] = molecular target: GPIb-mIgG2aFc chimeric protein (N-terminus side region of human glycoprotein Ib, amino acid numbers 1-319, fused to the Fc region of mouse immunoglobulin γ2a) (human (glycoprotein Ib part); mouse (immunoglobulin γ2a Fc part)); assay: Eu-labelled vWF (500 ng/ml) on captured chimeric protein, ristocetin 2 mg/ml, no inhibitor
[7] = molecular target: GPIb-mIgG2aFc chimeric protein (N-terminus side region of human glycoprotein Ib, amino acid numbers 1-319, fused to the Fc region of mouse immunoglobulin γ2a) (human (glycoprotein Ib part); mouse (immunoglobulin γ2a Fc part)); assay: Eu-labelled vWF on captured chimeric protein, ristocetin 1 mg/ml, competitor recombinant AS1051 at 20 µg/ml
[8] = molecular target: GPIb-mIgG2aFc chimeric protein (N-terminus side region of human glycoprotein Ib, amino acid numbers 1-319, fused to the Fc region of mouse immunoglobulin γ2a) (human (glycoprotein Ib part); mouse (immunoglobulin γ2a Fc part)); assay: Eu-labelled vWF (500 ng/ml) on captured chimeric protein, ristocetin 0 mg/ml, no inhibitor
[9] = molecular target: GPIb-mIgG2aFc chimeric protein (N-terminus side region of human glycoprotein Ib, amino acid numbers 1-319, fused to the Fc region of mouse immunoglobulin γ2a) (human (glycoprotein Ib part); mouse (immunoglobulin γ2a Fc part)); assay: Eu-labelled vWF (500 ng/ml) on captured chimeric protein, ristocetin 1 mg/ml, no inhibitor
[10] = molecular target: GPIb-mIgG2aFc chimeric protein (N-terminus side region of human glycoprotein Ib, amino acid numbers 1-319, fused to the Fc region of mouse immunoglobulin γ2a) (human (glycoprotein Ib part); mouse (immunoglobulin γ2a Fc part)); assay: Eu-labelled vWF (500 ng/ml solution) with botrocetin (500 ng/ml) on chimeric protein captured by anti-mouse immunoglobulin antibodies, no inhibitor
[11] = molecular target: GPIb-mIgG2aFc chimeric protein (N-terminus side region of human glycoprotein Ib, amino acid numbers 1-319, fused to the Fc region of mouse immunoglobulin γ2a) (human (glycoprotein Ib part); mouse (immunoglobulin γ2a Fc part)); assay: Eu-labelled vWF on captured chimeric protein, ristocetin 0.25 mg/ml, competitor recombinant AS1051 at 20 µg/ml
[12] = molecular target: GPIb-mIgG2aFc chimeric protein (N-terminus side region of human glycoprotein Ib, amino acid numbers 1-319, fused to the Fc region of mouse immunoglobulin γ2a) (human (glycoprotein Ib part); mouse (immunoglobulin γ2a Fc part)); assay: Eu-labelled vWF on captured chimeric protein, ristocetin 2 mg/ml, competitor recombinant AS1051 at 20 µg/ml
[13] = molecular target: T1, human von Willebrand factor (human, UniProt P04275 764-2813); assay: ELISA: GPIb-mIgGlFc culture supernatant on vWF immobilised with botrocetin, detected with biotinylated anti-mouse IgG-Fc antibodies
T1 construct: also called vWF; von Willebrand factor labeled with europium (Eu)
Protocol: Immobilization of a mixed solution of von Willebrand factor and botrocetin on a 96-well multititer plate was attained as follows. First, a physiological saline solution of von Willebrand factor (250 μg/ml) and a physiological saline solution of botrocetin (500 μg/ml), which were prepared in a conventional manner, were appropriately diluted, and mixed at the concentration ratios shown in FIG. 2. Then, 50 μl of each mixture was added to each well of a 96-well multititer plate (Maxisorp, produced by Nunc). The plate was left stand overnight at 4° C., and then each well was washed once with a physiological Tris buffer (150 μl, 20 mM Tris-HCl (pH 7.4), 0.15 M sodium chloride; Tris buffered saline, referred to as “TBS” hereinafter). Then, each well was added with 100 μl of TBS containing 10% BSA (bovine serum albumin), left stand for about 3 hours, and washed 3 times with TBS to obtain a von Willebrand factor immobilized plate. […]

[14] = molecular target: T1, human von Willebrand factor; assay: Ratio of control count to count with inhibitor; Eu-labelled chimeric protein on immobilised vWF, botrocetin in liquid phase
Protocol: A TBS solution (50 μl) containing human von Willebrand factor (2.5 μg/ml) was added to each well of a 96-well plate, and the von Willebrand factor was immobilized as a solid phase overnight at 4° C. Each well was washed once with TBS (150 μl) and blocked with TBS containing 5% BSA for about 3 hours. Each well of the plate was washed twice with TBS (150 μl), and then added with 25 μl of an assay buffer (Assay Buffer, Wallac DELFIA 1244-106, produced by Wallac, composition was mentioned in Example 4 <2>) or a recombinant AS1051 (in which Cys81 was replaced with Ala) at a final concentration of 20 μg/ml, further added with the assay buffer (25 μl) containing the europium (Eu)-labeled chimeric protein prepared in Example 4 <2> (100 ng/ml) and botrocetin (500 ng/ml), and left stand at room temperature for 3 hours. Each well of the plate was washed 5 times with TBS ([…]) containing 0.05% Tween-20, then added with 100 μl of a fluorescence enhancement buffer (Enhancement solution, 1244-104, produced by Wallac, composition was mentioned in Example 4 <2>), and shaken for 1 minute. Then, the amount of europium (Eu) was measured by using a 1420 ARVO multi-label counter (produced by Wallac, measurement time: 1 second). The measured values (with no addition of sample or addition of the inhibition sample) and CV value (deviation, %) are shown in Table 2.

[15] = molecular target: T1, human von Willebrand factor; assay: Ratio of control count to count with AS1051; Eu-labelled chimeric protein on vWF immobilised with botrocetin
Protocol: The binding of the europium (Eu) labeled chimeric protein and the von Willebrand factor immobilized in the presence of botrocetin prepared as described above was detected as follows. According to the method mentioned in Example 4 <1>, a mixed solution (TBS) containing 2.5 μg/ml of von Willebrand factor and 2.5 μg/ml of botrocetin was added to each well of a 96-well multititer plate (microtitration plate DELFIA, 1244-550, produced by Wallac), immobilized overnight and subjected to washing, blocking and washing to prepare a von Willebrand factor immobilized plate.
Each well of the above plate was added with 25 μl of an assay buffer containing 0.5% BSA (Assay Buffer, Wallac DELFIA 1244-106, produced by Wallac, Composition: 0.5% BSA, 0.05% bovine γ-globulin, 0.01% Tween-40, 20 μM DTPA (diethylenetriamine […] acid), 50 mM Tris-HCl buffered saline (pH 7.8), 0.05% sodium azide) or the recombinant AS1051 (in which Cys81 was replaced with Ala, N. Fukuchiet al., WO 95/08573) at a final concentration of 20 μg/ml as the binding inhibition substance, further added with 25 μl of a solution of europium. […] Then, the amount of europium (Eu) was measured by using a DELFIA Research fluorophotometer (1230 ARCUS Fluorometer, produced by Wallac, measurement time: 1 second). […]

“human von Willebrand factor (from UniProt P04275 764-2813) (ligand)” showed a Binding amount in the presence of inhibition substance (count) [1] of 1850 counts, an Average value of count with addition of AJvW-2 (10 µg/ml) [2] of 2340 counts and a Binding amount (count) [3] of 3660 counts. The Binding amount in the presence of inhibition substance (count) [4] was 3250 counts, the Binding amount (count) [5] was 3010 counts and the Binding amount (count) [6] was 46200 counts. The Binding amount in the presence of inhibition substance (count) [7] was 3020 counts, the Binding amount (count) [8] was 2820 counts and the Binding amount (count) [9] was 13300 counts. For the same molecule, the Average value of count in control [10] was 37300 counts, the Binding amount in the presence of inhibition substance (count) [11] was 3080 counts and the Binding amount in the presence of inhibition substance (count) [12] was 6880 counts.

B1: GPIb-mIgGlFc chimeric protein (N-terminal region of human glycoprotein Ibα chain fused to the Fc region of mouse immunoglobulin γ1) (Fc fusion)
chain: HPICEVSKVASHLEVNCDKRNLTALPPDLPKDTTILHLSENLLYTFSLATLMPYTRLTQLNLDRCELTKLQVDGTLPVLGTLDLSHNQLQSLPLLGQTLPALTVLDVSFNRLTSLPLGALRGLGELQELYLKGNELKTLPPGLLTPTPKLEKLSLANNNLTELPAGLLNGLENLDTLLLQENSLYTIPKGFFGSHLLPFAFLHGNPWLCNCEILYFRRWLQDNAENVYVWKQGVDVKAMTSNVASVQCDNSDKFPVYKYPGKGCPTLGDEGDTDLYDYYPEEDTEGDKVRATRTVVKFPTKAHTTPWGLFYSWSTASLDVPRDCGCKPCICTVPEVSSVFIFPPKPKDVLTITLTPKVTCVVVDISKDDPEVQFSWFVDDVEVHTAQTQPREEQFNSTFRSVSELPIMHQDWLNGKEFKCRVNSAAFPAPIEKTISKTKGRPKAPQVYTIPPPKEQMAKDKVSLTCMITDFFPEDITVEWQWNGQPAENYKNTQPIMDTDGSYFVYSKLNVQKSNWEAGNTFTCSVLHEGLHNHHTEKSLSHSPGK
notes: Used as serum-free culture supernatant of transfected CHOdhfr- cells, diluted 8-fold, not purified; also called GPIb-mIgG1Fc; GPIbFcFH
B1: binds [13].

B2: GPIb-mIgG2aFc chimeric protein (N-terminus side region of human glycoprotein Ib, amino acid numbers 1-319, fused to the Fc region of mouse immunoglobulin γ2a) (Fc fusion)
chain: HPICEVSKVASHLEVNCDKRNLTALPPDLPKDTTILHLSENLLYTFSLATLMPYTRLTQLNLDRCELTKLQVDGTLPVLGTLDLSHNQLQSLPLLGQTLPALTVLDVSFNRLTSLPLGALRGLGELQELYLKGNELKTLPPGLLTPTPKLEKLSLANNNLTELPAGLLNGLENLDTLLLQENSLYTIPKGFFGSHLLPFAFLHGNPWLCNCEILYFRRWLQDNAENVYVWKQGVDVKAMTSNVASVQCDNSDKFPVYKYPGKGCPTLGDEGDTDLYDYYPEEDTEGDKVRATRTVVKFPTKAHTTPWGLFYSWSTASLDEPRGPTIKPCPPCKCPAPNLLGGPSVFIFPPKIKDVLMISLSPIVTCVVVDVSEDDPDVQISWFVNNVEVHTAQTQTHREDYNSTLRVVSALPIQHQDWMSGKEFKCKVNNKDLPAPIERTISKPKGSVRAPQVYVLPPPEEEMTKKQVTLTCMVTDFMPEDIYVEWTNNGKTELNYKNTEPVLDSDGSYFMYSKLRVEKKNWVERNSYSCSVVHEGLHNHHTTKSFSRTPGK
notes: Purified on Protein A from CHOK1 culture supernatant; also called europium (Eu) labeled chimeric protein
B2 showed a S/N ratio [14] of 35 and a S/N ratio [15] of 28.5.
